The test concerns the target T1, mouse GUCY2c (mouse, UniProt Q3UWA6 20-1072).
T1 construct: whole, on cells; 300.19 cells over-expressing mouse GUCY2c, formalin-fixed paraffin-embedded cell pellets
T1 sequence (looked up): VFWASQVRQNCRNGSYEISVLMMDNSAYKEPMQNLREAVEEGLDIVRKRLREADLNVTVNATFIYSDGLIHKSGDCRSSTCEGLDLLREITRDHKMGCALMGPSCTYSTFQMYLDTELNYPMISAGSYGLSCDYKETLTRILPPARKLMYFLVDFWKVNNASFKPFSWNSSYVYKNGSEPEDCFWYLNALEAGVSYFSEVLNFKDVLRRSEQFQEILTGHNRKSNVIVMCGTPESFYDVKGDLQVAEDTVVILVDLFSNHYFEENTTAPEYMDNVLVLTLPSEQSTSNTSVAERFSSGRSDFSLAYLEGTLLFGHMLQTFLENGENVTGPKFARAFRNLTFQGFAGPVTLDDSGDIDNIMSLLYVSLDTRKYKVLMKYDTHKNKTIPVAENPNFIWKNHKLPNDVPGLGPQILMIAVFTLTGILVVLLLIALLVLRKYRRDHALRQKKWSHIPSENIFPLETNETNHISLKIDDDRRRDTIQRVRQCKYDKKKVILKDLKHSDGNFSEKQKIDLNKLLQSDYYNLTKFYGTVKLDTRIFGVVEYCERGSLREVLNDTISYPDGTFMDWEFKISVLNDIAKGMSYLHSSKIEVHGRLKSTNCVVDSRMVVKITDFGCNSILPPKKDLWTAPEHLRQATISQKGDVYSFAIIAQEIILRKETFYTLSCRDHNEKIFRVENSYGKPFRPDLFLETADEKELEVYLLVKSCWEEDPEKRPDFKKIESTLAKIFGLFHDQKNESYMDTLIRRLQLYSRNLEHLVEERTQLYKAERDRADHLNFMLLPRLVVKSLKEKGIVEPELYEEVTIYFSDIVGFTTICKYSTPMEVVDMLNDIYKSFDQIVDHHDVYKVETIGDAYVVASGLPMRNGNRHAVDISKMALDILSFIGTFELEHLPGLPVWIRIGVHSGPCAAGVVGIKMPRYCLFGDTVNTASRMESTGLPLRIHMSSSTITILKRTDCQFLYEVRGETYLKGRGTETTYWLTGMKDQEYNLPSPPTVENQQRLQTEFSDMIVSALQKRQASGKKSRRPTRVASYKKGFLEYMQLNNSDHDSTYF
Kind of test: IHC on FFPE pellets of 300.19 cells over-expressing mouse GUCY2c. As for the experimental part: Empty holes were filled with paraffin and the array was allowed to warm at 40 ° C. in an incubator overnight to anneal the donor cores with the recipient block. Five micron sections of the cell microarray were cut, transferred to a water bath and placed on Superfrost Excell microscope slides (Fisher). Slides were allowed to dry overnight. After deparaffinization and rehydration of tissue sections, heat induced epitope retrieval was performed in the Retriever 2100 pressure cooker (Electron Microscopy Sciences) in Borg Decloaker buffer pH 9.5 (Biocare Medical) or pH 6.0 Citrate buffer (Thermo Scientific) followed by cooling to room temperature (RT). Endogenous peroxidase activity was inactivated with Peroxidazed 1 (Biocare Medical) for 10 m. Non-specific protein interactions were blocked for 10 m with Background Punisher (Biocare Medical). Each hybridoma was incubated without dilution for 1 h under both heat induced epitope retrieval conditions. Sections were rinsed in TBS and hybridoma binding was detected with Envision+ Mouse HRP (DAKO) for 30 m. Slides were rinsed in TBS and immunoreactivity was developed with Betazoid DAB Chromogen Kit (Biocare Medical) for 5 m, followed by rinses in distilled water. […] Slides were evaluated by a pathologist to assess immunoreactivity. […]

B1: Anti-GUCY2c antibody Ab288 (antibody, mouse IgG1, kappa, V domains shown)
VH: DVQLQESGPGLVKPSQSLSLTCTVTGYSITSDYAWNWIRQFPGNNLEWMGYISYSGSTRYNPSLKSRISITRDTSKNQFFLQLNSVTSEDTATYYCAREDGYVAMDYWGQGTSVTVSS
VL: DIVLTQSPASLAVSLGQRATISCRASESVEYFGTSFMQWYQQRPGQPPKLLIYAASNVESGVPVRFSGSGSGTDFSLNIHPVEEDDIAMYFCQQSRKVPWTFGGGTNLEIKR
For B1, the binding result was “no binding (tested: 2 µg/ml and 10 µg/ml)”.

These data come from patent US20230146072A1 (Pfizer, published 2023).
